Source: publication PMC3158823

Molecular target: Neu/V664E TM domain peptide (rat)
Assay: SDS-PAGE mobility

stoichiometry N: 2
Substance: Neu/V664E TM domain peptide
